{"source": "paper PMC3832974", "target": "human alpha-thrombin (Homo sapiens, UniProt P00734;P00734 328-363;364-622)", "assay": "dot blot immunoenzymatic assay on cloth; 13.5 nM thrombin; UV cross-linked; PBS (0.01 M phosphate pH 7.4, 0.85% NaCl), 13.5 nM thrombin, 20 min, room temperature; aptamers (10 uM) spotted in 0.1 M Tris-HCl pH 8.0, 0.01 M MgCl2, 0.15 M N", "data": [{"binder": "Apt 4 (ssDNA) DNA: AGATGCCTGTCGAGCATGCTCTTTGGAGACAGTCCGTGGTAGGGCAGGTTGGGGTGACTTCGTGGAAGAAGCGAGACGGTGTAGCTAAACTGCTTTGTCGACGGG", "values": [{"measurement": "binding result", "value": "binds"}]}]}
